Reference: doi:10.1101/2020.03.20.999888 (bioRxiv, 2020)

Assays:
SEC-MALS = target: the molecule itself; assay: SEC-MALS
GspM = target: T1, GspM (P. aeruginosa, UniProt P25061 1-174); assay: SEC-MALS
T1 sequence: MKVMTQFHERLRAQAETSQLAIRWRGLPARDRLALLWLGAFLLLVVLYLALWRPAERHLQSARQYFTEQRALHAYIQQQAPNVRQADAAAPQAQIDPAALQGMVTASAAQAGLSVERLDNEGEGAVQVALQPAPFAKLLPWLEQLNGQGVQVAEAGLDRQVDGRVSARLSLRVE

B1: GspL^peri (domain or fragment)
chain: WQLQREGDRYAAQSAELYRQLFPEDRKLINLRAQFDQHLADSASSGGEGQLLGLLGQAATVIGGEPTVSVEQLDFSAARGDVALQVRAPGFDVLERLRSRLSESGLAVQLGSASRDGSTVSARLVIGG
- stoichiometry N (SEC-MALS): 2

B2: GspL (natural protein)
chain: MSGVSALFLPPASTAGADGELAVWWVQDGECRRAPFAQALAEIRAPWRLYLPVEAVTACAVNLPTQKARWLRQSLPFAVEEQLADDVEQMHLALGPALADGRHRVFAVQRTWLAAWLALAEGAGKAPASLHVDADCLPGEGSCLFWLEERWLLGGSGAVRLACGSEDWPVLRDSCPPPQRAFAAQEVAPLEGVEVQALAGNPHVWLSEQPLGTDLAQAEFAARQQSSQWRRWRPLLGLVGLWLVLQWGFTLVQAWQLQREGDRYAAQSAELYRQLFPEDRKLINLRAQFDQHLADSASSGGEGQLLGLLGQAATVIGGEPTVSVEQLDFSAARGDVALQVRAPGFDVLERLRSRLSESGLAVQLGSASRDGSTVSARLVIGG
- stoichiometry N (GspM): 1 GspL per GspM (printed as 2:2)
